Assay results from patent USRE49026.

Molecular target: recombinant human IL-23R/Fc chimera (human) (UniProt Q5VWK5)
Assay: ELISA of conditioned media on coated IL-23R-Fc, anti-p40 detection

recombinant human IL-23R/Fc chimera (human), sequence (Q5VWK5 24-353 limits assumed, change not shown): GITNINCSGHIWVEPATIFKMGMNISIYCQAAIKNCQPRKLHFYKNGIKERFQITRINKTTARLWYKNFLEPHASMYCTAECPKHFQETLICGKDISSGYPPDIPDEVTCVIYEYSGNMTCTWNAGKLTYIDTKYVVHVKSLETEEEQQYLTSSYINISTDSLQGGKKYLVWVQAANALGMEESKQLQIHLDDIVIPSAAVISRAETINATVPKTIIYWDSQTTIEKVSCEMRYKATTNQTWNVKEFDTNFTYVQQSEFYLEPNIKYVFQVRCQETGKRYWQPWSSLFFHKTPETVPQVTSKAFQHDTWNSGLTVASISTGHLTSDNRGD

“W2 IL-23 cytokine (p19 W2 to G mutant + p40) (from UniProt Q9NPF7 20-189; P29460 23-328) (ligand)” showed a reduction of binding compared to WT of 50%.
